We go through three sequences from PMC5500506.

The subject of this data set is T1, GdmRIII (Streptomyces autolyticus CGMCC0516), ORF:755639c7.
T1 sequence: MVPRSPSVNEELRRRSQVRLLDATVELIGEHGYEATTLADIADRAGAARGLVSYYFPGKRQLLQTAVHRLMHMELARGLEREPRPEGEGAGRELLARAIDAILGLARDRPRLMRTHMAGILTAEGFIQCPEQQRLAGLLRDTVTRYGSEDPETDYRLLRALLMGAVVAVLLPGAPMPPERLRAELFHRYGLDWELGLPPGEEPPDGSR
Description: EMSA. Conditions: EMSA: 10 mM Tris-HCl pH 7.5, 50 mM NaCl, 10 mM MgCl2, 1 mM EDTA, 1 mM DTT, 5% glycerol, 0.1 ug/ul poly(dI-dC), 0.3 nM DNA; temperature not given.
Turning to “GCTCACCGACCCCGCGCACGAGGTGCTGGTCATCACGATGGCCGACCGGTTCGGCCCGCACGGCGCCGTCGGCATCGTGCTGCTGGAACGCCACCCGGCGGTGTGGCATCTGAAACTGCTCGCCACCTCCTGCCGTGTGGTCTCCTACGGCGCCGGGTCCACCCTGCTGAACTGGCTGGCCGACCAGGCGGCGCGTGCCGGGGTGCATCTGGCCGCCGACTTCCGGCGCACCGACCGCAACCGGATGATGGAGGTCGCCTACCGCTTCGCCGGGTTCGCCGACGCCGACTGCGCCTGCAC (double strand) [gdmN promoter]”, the binding result is given as “binds”.

Consider “GCGACGTCCACCGCCGTCTCCTTCCCGCTCATTCGCCCGCCAGGATCAGATCGACCGTGTCCTGGAACTCGTCCGCCTTCACCAGCACCTTGGTGCGCTCCACCCCGTCCTCGACGGTGAAGCAGCGCCTGCCGATCAGCACGATCTTTCCGTTGTCCGTGGCCCGGCTGCGGAAGGTGGTCCCGGCGAGCACCGAGTCCTGTGCGTAGTCGTCCAGGCTGTCCAGCCGCACCGCGTCCCAGCCGGACGGGTCGGCCAGCTCCGGCCGGAACCGGTACACCGGCTGCCAGCCGCTCTC (double strand) [gdmM promoter]”, for which the binding entry was “binds”.

As to “AGGAGCTGCCCGACTGGCGGTCCTTCTGGGAGCTGCCGCACGACATCGTCGATGTGCGCGGCAACCACTTCACCATGATGGAGGACCACTCCCTCCCCACCGCCCAGGCCATCGAGGACTGGCTGGAGCGACT (double strand) [elaF promoter]”, the binding entry was “binds”.
